Here are results for three molecules from patent US11844843 (DYNE THERAPEUTICS, dated 2023).

Changes are numbered by the printed parent chain. Numbers in names are those of the source. Where only a bound is given, the exact number is not on record here.

Assay [1] concerns the target T1, recombinant human TfR1 (transferrin receptor protein 1) (human, UniProt P02786 89-760).
T1 construct: Recombinant protein in SPR and ELISA; they were assigned to this molecule; also called hTfR1; huTfR1
The assay is described as follows: Biacore, d0; TfR1 species not stated. For orientation: SPR reads the build-up and loss of mass on a sensor chip optically.

Assay [2] has as its target T1, recombinant human TfR1 (transferrin …). As to the kind of experiment: Biacore, d25; TfR1 species not stated.
For assay [3] the target is unchanged. As to the kind of experiment: ELISA on hTfR1, unconjugated Fab, % normalized RFUs. In general terms: An ELISA detects its analyte on a solid surface through an enzyme-linked reagent.
For assay [4], the target named is T2, recombinant cynomolgus monkey (Macaca fascicularis) TfR1 (cynomolgus monkey (Macaca fascicularis), UniProt Q5RDH6 87-760 (Pongo abelii entry), limits assumed).
T2 construct: Recombinant protein; also called cTfR1; cyTfR1
T2 chain: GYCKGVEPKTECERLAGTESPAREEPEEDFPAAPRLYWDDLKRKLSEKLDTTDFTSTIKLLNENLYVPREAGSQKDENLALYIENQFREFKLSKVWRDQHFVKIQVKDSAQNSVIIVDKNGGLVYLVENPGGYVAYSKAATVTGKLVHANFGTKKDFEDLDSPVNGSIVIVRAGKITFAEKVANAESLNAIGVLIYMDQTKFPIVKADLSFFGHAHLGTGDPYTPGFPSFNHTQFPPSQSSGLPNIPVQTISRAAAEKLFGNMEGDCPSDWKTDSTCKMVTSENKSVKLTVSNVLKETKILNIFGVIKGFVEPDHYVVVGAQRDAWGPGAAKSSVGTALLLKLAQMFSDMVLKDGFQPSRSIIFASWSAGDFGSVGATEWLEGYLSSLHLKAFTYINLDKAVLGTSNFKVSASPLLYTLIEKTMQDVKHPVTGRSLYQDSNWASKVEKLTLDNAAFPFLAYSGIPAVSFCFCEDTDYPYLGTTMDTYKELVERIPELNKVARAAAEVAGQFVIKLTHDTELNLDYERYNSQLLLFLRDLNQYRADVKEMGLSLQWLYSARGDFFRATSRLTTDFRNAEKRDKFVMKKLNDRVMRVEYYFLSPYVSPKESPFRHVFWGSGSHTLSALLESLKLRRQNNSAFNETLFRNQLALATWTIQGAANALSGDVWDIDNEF
As to the kind of experiment: ELISA on cTfR1, unconjugated Fab, % normalized RFUs.

The target of assay [5] is T1, recombinant human TfR1 (transferrin …). As to the kind of experiment: kinetic analysis (Biacore), Table 7; TfR1 species not stated.
Assay [6] shares this target. As to the kind of experiment: Table 14, unconjugated Fab, d9 (after 9 days at 40 C); method not named.
For assay [7], the target named is T2, recombinant cynomolgus monkey (Macaca …). The assay is described as above.
The target in assay [8] is T1, recombinant human TfR1 (transferrin …). The assay is described as follows: ELISA, recombinant TfR1 coated, unconjugated Fab (row 'Fab binding affinity ELISA').
Assay [9] deals with T2, recombinant cynomolgus monkey (Macaca …). Described as above.
The target of assay [10] is T1, recombinant human TfR1 (transferrin …). The assay is described as follows: Table 14, unconjugated Fab, d0; method not named (values equal ELISA row of Table 13).
The target in assay [11] is T2, recombinant cynomolgus monkey (Macaca …). The assay is described as above.
In assay [12] the target is T1, recombinant human TfR1 (transferrin …). As to the kind of experiment: ELISA on plate-coated recombinant hTfR1, fluorescent anti-(H+L) IgG-A488 detection, % normalized RFUs. Here is the method:
(§1) To measure binding of humanized anti-TfR antibodies to TfR1, ELISAs were conducted. High binding, black, flat bottom, 96 well plates (Corning #3925) were first coated with 100 μL/well of recombinant huTfR1 at 1 μg/mL in PBS and incubated at 4° C. overnight. Wells were emptied and residual liquid was removed. Blocking was conducted by adding 200 μL of 1% BSA (w/w) in PBS to each well. Blocking was allowed to proceed for 2 hours at room temperature on a shaker at 30) rpm. After blocking, liquid was removed and wells were washed three times with 300 μL of TBST. Anti-TfR1 antibodies were then added in 0.5% BSA/TBST in triplicate in an 8 point serial dilution (dilution range 5 μg/mL-5 ng/mL). A positive control and isotype controls were also included on the ELISA plate. The plate was incubated at room temperature on an orbital shaker for 60 minutes at 300 rpm, and the plate was washed three times with 300 μL of TBST. Anti-(H+L)IgG-A488 (1:500) (Invitrogen #A11013) was diluted in 0.5% BSA in TBST, and 100 μL was added to each well. The plate was then allowed to incubate at room temperature for 60 minutes at 300 rpm on orbital shaker. The liquid was removed and the plate was washed four times with 300 μL of TBST. […] Data was recorded and analyzed for $EC50$. […]

Assay [13] addresses T2, recombinant cynomolgus monkey (Macaca …). The assay is described as follows: ELISA on plate-coated recombinant cTfR1, fluorescent anti-(H+L) IgG-A488 detection, % normalized RFUs. The procedure:
as §1

The target in assay [14] is T1, recombinant human TfR1 (transferrin …). The assay is described as follows: ELISA on hTfR1, unconjugated Fab, % normalized RFUs. The source holds these as a separate data set.
For assay [15], the target named is T2, recombinant cynomolgus monkey (Macaca …). The assay is described as follows: ELISA on cTfR1, unconjugated Fab, % normalized RFUs.
Assay [16] addresses T1, recombinant human TfR1 (transferrin …). As to the kind of experiment: ELISA on plate-coated recombinant hTfR1, fluorescent anti-(H+L) IgG-A488 detection, % normalized RFUs. The procedure:
To measure binding of humanized anti-TfR antibodies to TfR1, ELISAs were conducted. High binding, black, flat bottom, 96 well plates (Corning #3925) were first coated with 100 μL/well of recombinant huTfR1 at 1 μg/mL in PBS and incubated at 4° C. overnight. Wells were emptied and residual liquid was removed. Blocking was conducted by adding 200 μL of 1% BSA (w/w) in PBS to each well. Blocking was allowed to proceed for 2 hours at room temperature on a shaker at 30) rpm. After blocking, liquid was removed and wells were washed three times with 300 μL of TBST. Anti-TfR1 antibodies were then added in 0.5% BSA/TBST in triplicate in an 8 point serial dilution (dilution range 5 μg/mL-5 ng/mL). A positive control and isotype controls were also included on the ELISA plate. The plate was incubated at room temperature on an orbital shaker for 60 minutes at 300 rpm, and the plate was washed three times with 300 μL of TBST. Anti-(H+L)IgG-A488 (1:500) (Invitrogen #A11013) was diluted in 0.5% BSA in TBST, and 100 μL was added to each well. The plate was then allowed to incubate at room temperature for 60 minutes at 300 rpm on orbital shaker. The liquid was removed and the plate was washed four times with 300 μL of TBST. Absorbance was then measured at 495 nm excitation and […] (with a 15 nm bandwidth) on a plate reader. Data was recorded and analyzed for $EC50$. […] ELISA measurements were conducted using cynomolgus monkey (Macaca fascicularis) TfR1 (cTfR1) according to the same protocol described above for hTfR1, and results are shown in FIGS. 9B, 9D, and 9F.
This is another data set of the same source.

The target in assay [17] is T2, recombinant cynomolgus monkey (Macaca …). The assay is described as follows: ELISA on plate-coated recombinant cTfR1 (target per paragraph 617), fluorescent anti-(H+L) IgG-A488 detection, % normalized RFUs. Here is the method: To measure binding of humanized anti-TfR antibodies to TfR1, ELISAs were conducted. High binding, black, flat bottom, 96 well plates (Corning #3925) were first coated with 100 μL/well of recombinant huTfR1 at 1 μg/mL in PBS and incubated at 4° C. overnight. Wells were emptied and residual liquid was removed. Blocking was conducted by adding 200 μL of 1% BSA (w/w) in PBS to each well. Blocking was allowed to proceed for 2 hours at room temperature on a shaker at 30) rpm. After blocking, liquid was removed and wells were washed three times with 300 μL of TBST. Anti-TfR1 antibodies were then added in 0.5% BSA/TBST in triplicate in an 8 point serial dilution (dilution range 5 μg/mL-5 ng/mL). A positive control and isotype controls were also included on the ELISA plate. The plate was incubated at room temperature on an orbital shaker for 60 minutes at 300 rpm, and the plate was washed three times with 300 μL of TBST. Anti-(H+L)IgG-A488 (1:500) (Invitrogen #A11013) was diluted in 0.5% BSA in TBST, and 100 μL was added to each well. The plate was then allowed to incubate at room temperature for 60 minutes at 300 rpm on orbital shaker. The liquid was removed and the plate was washed four times with 300 μL of TBST. Absorbance was then measured at 495 nm excitation and […] (with a 15 nm bandwidth) on a plate reader. Data was recorded and analyzed for $EC50$. […]

B1: humanized anti-TfR Fab 3M12 VH3/Vκ2 (Fab, V domains shown)
VH: QVQLQESGPGLVKPSQTLSLTCSVTGYSITSGYYWNWIRQPPGKGLEWMGYITFDGANNYNPSLKNRVSISRDTSKNQFSLKLSSVTAEDTATYYCTRSSYDYDVLDYWGQGTTVTVSS
VL: DIQMTQSPSSLSASVGDRVTITCRASQDISNFLNWYQQKPGQPVKLLIYYTSRLHSGVPSRFSGSGSGTDFTLTISSLQPEDFATYFCQQGHTLPYTFGQGTKLEIKR
notes: also called 3M12 (VH3/Vk2)
For the molecule B1, the Kd was found to be 0.395 nM in assay [1], 0.567 nM in assay [2] and 0.395 nM in assay [5]. For the same molecule, the EC50 in assay [3] turned out to be 7.2 nM; in assay [4], 25.5 nM; in [8] it was 0.8 nM; in assay [9] it was 9.9 nM; in assay [12] it was 7.2 nM; in assay [13] it was 25.5 nM. Besides, the koff in assay [5] was 0.000104 s⁻¹. Further, the kon in assay [5] is 264000 M⁻¹ s⁻¹. For the same molecule, the Binding affinity was found to be 0.98 nM in assay [6], 19.5 nM in [7], 0.8 nM in assay [10] and 9.9 nM in [11].

B2: humanized anti-TfR Fab 5H12 VH5 (C33Y)/Vκ4 (Fab, V domains shown)
VH: QVQLVQSGAEVKKPGASVKVSCKASGYSFTDYYINWVRQAPGQGLEWMGWIYPGSGNTRYSERFKGRVTITRDTSASTAYMELSSLRSEDTAVYYCAREDYYPYHGMDYWGQGTLVTVSS
VL: DIVMTQSPDSLAVSLGERATINCRASESVDGYDNSFMHWYQQKPGQPPKLLIFRASNLESGVPDRFSGSGSGTDFTLTISSLQAEDVAVYYCQQSSEDPWTFGQGTKLEIKR
notes: also called 5H12 (VH5-C33Y/Vk4)
Turning to B2, the results for the Kd in [1], in assay [2] and in [5] were 0.626 nM, 1.33 nM and 0.626 nM, respectively. Also, the EC50 was above 100 nM in [14]; 3.4 nM in assay [15]; 2.8 nM in assay [8]; 3.3 nM in [9]; above 100 nM in assay [16]; 3.4 nM in [17]. Further, the koff in assay [5] turned out to be 0.000117 s⁻¹. In [5], the kon turned out to be 186000 M⁻¹ s⁻¹. Further, the Binding affinity stood at 1730 nM in assay [6], 0.26 nM in assay [7], 2.8 nM in [10] and 3.3 nM in assay [11].

B3: humanized anti-TfR Fab 5H12 VH5 (C33Y)/Vκ3 (Fab, V domains shown)
VH: B2 VH
VL: B2 VL with M4L, G72R
notes: also called 5H12 (VH5-C33Y/Vk3)
Turning to B3, the Kd in assay [1] is 0.627 nM; in assay [2], 1.07 nM; in [5] it was 0.627 nM. Also, the EC50 was above 100 nM in [14]; 2 nM in [15]; 6.3 nM in [8]; 2.1 nM in assay [9]; above 100 nM in [16]; 2 nM in assay [17]. Further, the koff in assay [5] amounted to 0.000122 s⁻¹. For the same molecule, in [5], the kon worked out at 195000 M⁻¹ s⁻¹. For the same molecule, the Binding affinity in assay [6] amounted to 71.9 nM; in [7] it was 0.69 nM; in assay [10], 6.3 nM; in assay [11], 2.1 nM.

Usually Kd stands for the free concentration of one partner at which half of the binding sites on the other are occupied at equilibrium, for simple one-to-one binding. Usually EC50 stands for the concentration at which the effect is half-maximal. Usually koff stands for the rate constant with which the complex falls apart. The term kon denotes a measure of how fast the partners come together.
